B1: VHH2–77 (recombinant, pcDNA3.1-VHH, 6 × His) (VHH)
VHH: QVQLQESGGGLVQAGGSLRLSCAASGYISDAYYMGWYRQAPGKEREFVATITHGTNTYYADSVKGRFTISRDNAKNTVYLQMNSLKPEDTAVYYCAVFSTISVNIYTFLYVIFFYWGQGTQVTVSS
B2: VHH2–28 (recombinant, pcDNA3.1-VHH, 6 × His) (VHH)
VHH: QVQLQESGGGLVQAGGSLRLSCAASGSISLHPQMGWYRQAPGKERELVAGIATGGNTNYADSVKGRFTISRDNAKNTVYLQMNSLKPEDTAVYYCAVNEYHPRAMYALYIYWGQGTQVTVSS
B3: VHH1–41 (recombinant, pcDNA3.1-VHH, 6 × His) (VHH)
VHH: QVQLQESGGGLVQAGGSLRLSCAASGSIFTFVRMGWYRQAPGKERELVAGIAIGSITYYADSVKGRFTISRDNAKNTVYLQMNSLKPEDTAVYYCAAQSVQKAETTSPFAYWGQGTQVTVSS
B4: VHH2–50 (recombinant, pcDNA3.1-VHH, 6 × His) (VHH)
VHH: QVQLQESGGGLVQAGGSLRLSCAASGYISDAYYMGWYRQAPGKEREFVATITHGTNTYYADSVKGRFTISRDNAKNTVYLQMNSLKPEDTAVYYCAALFSIIVYYFSNSNLVFNYWGQGTQVTVSS
B5: VHH2–18 (recombinant, pcDNA3.1-VHH, 6 × His) (VHH)
VHH: QVQLQESGGGLVQAGGSLRLSCAASGYISDAYYMGWYRQAPGKEREFVATITHGTNTYYADSVKGRFTISRDNAKNTVYLQMNSLKPEDTAVYYCAASSLRKVLMTQLPTRLYYYWGQGTQVTVSS
B6: VHH1–4 (recombinant, pcDNA3.1-VHH, 6 × His) (VHH)
VHH: QVQLQESGGGLVQAGGSLRLSCAASGTIFCYGGMGWYRQAPGKERELVAGITMGTSTNYADSVKGRFTISRDNAKNTVYLQMNSLKPEDTAVYYCAAAVMVAGPYQSWHGYWGQGTQVTVSS
B7: VHH1–15 (recombinant, pcDNA3.1-VHH, 6 × His) (VHH)
VHH: QVQLQESGGGLVQAGGSLRLSCAASGYISDAYYMGWYRQAPGKEREFVATITHGTNTYYADSVKGRFTISRDNAKNTVYLQMNSLKPEDTAVYYCAVLETRSYSFRYWGQGTQVTVSS
notes: same VHH as m2; also called PEDV S-VHH; not shown: His6, C-terminal, kept
B8: VHH1–15 (pGADT7-VHH library clone) (VHH)
VHH: B7 VHH
notes: clone from a synthetic nanobody yeast library; also called PEDV S-VHH; source: yeast two-hybrid fusion (AH109)
B9: VHH1–89 (recombinant, pcDNA3.1-VHH, 6 × His) (VHH)
VHH: QVQLQESGGGLVQAGGSLRLSCAASGYISDAYYMGWYRQAPGKEREFVATITHGTNTYYADSVKGRFTISRDNAKNTVYLQMNSLKPEDTAVYYCAVFLARIASFLPILLISLRYWGQGTQVTVSS

What was measured:
[1] = molecular target: T1, PEDV S protein of strain PEDV-JSXH-2021 in infected Vero E6 cells (Porcine epidemic diarrhea virus, …, UniProt Q91AV1, strain); experiment: cell-based or functional assay
[2] = molecular target: T1, PEDV S protein of strain PEDV-JSXH-2021 …; experiment: immunostaining of cells or tissue; IFA on Vero E6 cells infected with PEDV-JSXH-2021 (MOI 0.01, 48 h), fixed with 4% paraformaldehyde; purified VHH as primary antibody overnight at 4 °C, mouse anti-His tag, then Alexa Fluor 555 goat anti-mouse IgG; uninfected cells as mock; conditions: one partner purified
[3] = molecular target: T2, Recombinant PEDV S protein, strain PEDV-JSXH-2021, 3 × FLAG (pFastBac1-PEDV-S, rBV-PEDV-S) (Porcine epidemic diarrhea virus, …, UniProt Q91AV1, strain); experiment: immunostaining of cells or tissue; IFA on Sf9 cells infected with rBV-PEDV-S (MOI 0.1, 48 h), fixed with 4% paraformaldehyde; diluted refolded VHH as primary antibody, mouse anti-His tag, then Alexa Fluor 488 goat anti-mouse IgG; uninfected Sf9 cells as mock; conditions: one partner purified
T2 construct: Spike (S) protein of porcine epidemic diarrhea virus strain PEDV-JSXH-2021; band of approximately 180 kDa on the blot; the plasmid was synthesised; also called PEDV S protein expressed in Sf9 cells; source: Sf9 cells infected with recombinant baculovirus rBV-PEDV-S; in fixed cells and in supernatant of sonicated cells; not shown: 3xFLAG, C-terminal, kept

[4] = molecular target: T3, PEDV spike (S) protein, strain PEDV-JSXH-2021, bait pGBKT7-PEDV-S (Porcine epidemic diarrhea virus, …, UniProt Q91AV1, strain); experiment: two-hybrid; yeast AH109; bait in pGBKT7, prey in pGADT7; growth on SD-TL, SD-TLH, SD-TLHA and blue colour on SD-TLHA + X-α-gal, 30 °C, 3–4 days; positive clones verified again after the library screen; conditions: partners not purified
T3 construct: Spike (S) protein of porcine epidemic diarrhea virus strain PEDV-JSXH-2021 (G1b type); source: yeast two-hybrid fusion (AH109)

Row | Binder | concentration of VHH that completely neutralises infection of Vero E6 cells by PEDV-JSXH-2021 (serial dilutions from 200 ng/µL, read by IFA after 5 to 7 days) [1] | also measured
1 | B1 | 12.5 ng/µL | –
2 | B2 | 50 ng/µL | –
3 | B3 | 25 ng/µL | –
4 | B4 | 25 ng/µL | –
5 | B5 | 50 ng/µL | –
6 | B6 | 100 ng/µL | –
7 | B7 | – | binding result [2]: binds; binding result [3]: binds
8 | B8 | – | binding result [4]: binds
9 | B9 | 12.5 ng/µL | –
